Assay results reported in the supplement of paper PMC9170038.

Tested on: MS2 coat protein
Assay: apparent KD of MS2 coat protein; designed switch direction (-1 OFF switch, 1 ON switch): -1; higher = weaker reporter binding
In short: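 On Illumina chips, designed RNA switches with common flanks were made by stalled E. coli RNA polymerase. Titrations with SNAP-549-labelled MS2 coat protein, doubling from 0.7 or 1.5 nM to 3 µM, were done with no input, with 200 uM small-molecule ligand, or with an oligonucleotide input. Apparent KD is the median per design over clusters, from curve fits of normalised cluster fluorescence.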

[1] = input ligand: microRNA oligo, concentration not stated
[2] = Eterna round: R95, input ligand: microRNA oligo, concentration not stated
[3] = Eterna round: R95, input ligand: FMN 200 uM
[4] = Eterna round: R95, input ligand: none

Sequence	apparent KD of MS2 coat protein (input ligand: FMN 200 uM)	apparent KD of MS2 coat protein [1]	apparent KD of MS2 coat protein (input ligand: none)	apparent KD of MS2 coat protein [2]	apparent KD of MS2 coat protein [3]	apparent KD of MS2 coat protein [4]
AGUACCUGAGUACAAUGUAACAUGAGGAUCACCCAUGUAAUUGGGUGAGAACAAGCUCACCGUUCGUCUUAAAUAAA [JL turnoff v1 80] (Eterna round: R96, puzzle: Sensor v2, turn-off variant)	485 nM	55.3 nM	501 nM			
CUUGUACAUGAGGAUCACCCAUGUUAGGAUAUCUCGCCGUCGGCUUGCCGACGGUAUUAGAGAAGGGACUAGGG [JL Tixe mod 5] (puzzle: Exclusion 1)				38.8 nM		
GACUGUCUAGGAUAUGCGACGUUUUACAUGAGGAUCACCCAUGUUGUCUGCGUGUGUGUGGCAGAAGGAGACAAAC [Eses] (puzzle: Exclusion 5)				13.3 nM		
ACAAUGUCAGGAUAUGAACAGCGCGGUCACAAGGAUUGCUUUCAGAAGGGACAUGAGGAUCACCCAUGUCGAUA [Eternabot (L1) Solution 91] (Eterna round: R97, puzzle: Exclusion 4)	23 nM		20 nM			
CUUCACCCACCAAAGCUCACCCACAUACCUGCUCUGGUGACAUGAGGAUCACCCAUGUUUUUUGCCCGUCUUAUCUU [Leso] (puzzle: Sensor v3, turn-off variant 2)				163 nM	40.7 nM	41.4 nM
GGAAUGUAAGGAUAUCCGAAAGGCGAGCGAAAGCGAGCAAAGGAGAAGGUACAUGAGGAUCACCCAUGUAAGGG [AK-MS2ROC-r4-exclusion4-11.3] (Eterna round: R97, puzzle: Exclusion 4)	163 nM		513 nM			
UUAGUGUUAGGAUAUAAUCAUAUAAGCUGUAAGGUGUAUGAUUAGAAGGGACAUGAGGAUCACCCAUGUCGUGA [Eternabot (L1) Solution 94] (Eterna round: R97, puzzle: Exclusion 4)	23.1 nM		20.1 nM			
UCCAACCCUGUGAGGAUAUCGUCCAUUUUUUGUUACGAGAAGGCACAUGAGGAUCACCCAUGUUUUUUAUUUUU [JR_BMOE4_Sub079] (puzzle: Brourd's mod of Exclusion 4)				23.8 nM		
UGCAGACGAGGAUAUGAUAAUUAAUACAUGAGGAUCACCCAUGUAAUACUGAUCCAUGGAUCAGAAGGCGUCUGCU [E5/4-A3] (Eterna round: R97, puzzle: Exclusion 5)	20.2 nM		13.7 nM			
GGGAUGUGAGGAUAUCGAGGUGGAAAGCACCUAACAGAAAACGAGAAGGCACAUGAGGAUCACCCAUGUAAUAC [Ditete] (puzzle: Exclusion 4)				19.5 nM	54.6 nM	19.8 nM
CUAAAUCAUGUAGGAUAUGCGUAGCAAAGCUAUGCAGAAGGACAUGAGGAUCACCCAUGUCAUUCCGUCUGGAGACAGACGGGA [Mat - Exclusion NG 1 - Mod of JL - D55] (Eterna round: R96, puzzle: Exclusion NG 1)	186 nM	21.6 nM	30.8 nM			
UAAUGUGCGAGAGGAUAUCGUGUACAAAGUACACGAGAAGGCUUCACAUGAGGAUCACCCAUGUAUCGAGGUGAAACACCUUGA [Omei Exc(NG)1 Bv3] (Eterna round: R96, puzzle: Exclusion NG 1)	448 nM	254 nM	212 nM			
AAUUAGUGAGGAUAUACUAACAGUGAUAGUAGAUAGUGGAUGUAGAAGGCACAUGAGGAUCACCCAUGUUAUAA [EX4 #51] (Eterna round: R97, puzzle: Exclusion 4)	39.1 nM		33.5 nM			
CCAAGCUUUUUCAUUAACAACAUGAGGAUCACCCAUGUGUAAGCAAUUAUGUUUGGGCUCUUUAGUGCUCGUCUUAU [JR_STOV1_Sub042] (Eterna round: R97, puzzle: Sensor, turn-off variant 1)	17.4 nM		16.7 nM			
